Columns and labels:
[1] = target: T1, Sak4 (HkaL) of phage HK620 (Enterobacteria phage HK620, UniProt Q9AZ29); experiment: gel shift of Cy5-labelled 81-mer ssDNA and single-strand annealing assay, with or without ATP; conditions: 1 mM ATP, 5 mM MgCl2, about 150-169 mM NaCl, pH 7.5, 30 °C; ATP needed for ssDNA binding and annealing; functional evidence, nucleotide binding not measured directly
T1 construct: untagged full-length Sak4 from plasmid pSMG288, expressed in E. coli ER2566; monomer in solution
T1 sequence (Q9AZ29 1-226): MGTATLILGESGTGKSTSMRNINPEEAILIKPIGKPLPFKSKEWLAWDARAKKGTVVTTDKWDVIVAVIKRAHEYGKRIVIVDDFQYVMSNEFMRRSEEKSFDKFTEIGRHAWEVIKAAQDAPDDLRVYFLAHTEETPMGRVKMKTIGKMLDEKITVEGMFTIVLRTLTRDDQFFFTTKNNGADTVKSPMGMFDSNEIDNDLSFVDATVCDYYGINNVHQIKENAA

[2] = target: SSB_(HK620), wild-type HkaK protein from phage HK620 (phage HK620) (UniProt Q9AZ30)
[3] = target: the molecule itself; experiment: SEC; Superdex 200 10/300 GL; proteins alone or together in 1 mL of 50 mM Tris-HCl pH 8, 1 mM DTT, 5% glycerol, 150 mM NaCl, 20 min at 30°C before injection; fractions analysed by SDS-PAGE; no ssDNA, no ATP
SSB HK620 (HkaK) = target: T2, SSB HK620 (HkaK) (Enterobacteria phage HK620, UniProt Q9AZ30 1-195); experiment: EMSA; 5 mM Mg2+, 1 mM ATP; EMSA: 13 mM Tris-HCl pH 7.5, 5 mM MgCl2, 169 mM NaCl, 0.1 mg/mL BSA, 1 mM DTT, +/- 1 mM ATP, 10 nM DNA, 15 min at 30 C; 5% native PAGE in 1X TAE; conditions: protein: recombinant; tags: untagged; chain copies: 4; label: 5'-Cy5; single strand
T2 sequence: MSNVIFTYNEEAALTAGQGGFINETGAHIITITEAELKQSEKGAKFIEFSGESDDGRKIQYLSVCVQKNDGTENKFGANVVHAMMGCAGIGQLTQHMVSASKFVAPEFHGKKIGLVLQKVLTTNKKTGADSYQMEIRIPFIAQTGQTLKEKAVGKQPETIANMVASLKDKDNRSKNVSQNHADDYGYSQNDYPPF

SSB Ecoli = SSB Ecoli (Escherichia coli, UniProt P0AGE0 2-178); experiment: as above; conditions: protein: commercial; chain copies: 4; label: 5'-Cy5; single strand
Sak4 (HkaL) [4] = target: T3, Sak4 (HkaL) (Enterobacteria phage HK620, UniProt Q9AZ29 1-226); experiment: EMSA; 1 mM ATP, 5 mM Mg2+; EMSA: 13 mM Tris-HCl pH 7.5, 5 mM MgCl2, 169 mM NaCl, 0.1 mg/mL BSA, 1 mM DTT, +/- 1 mM ATP, 10 nM DNA, 15 min at 30 C; 5% native PAGE in 1X TAE; conditions: protein: recombinant; tags: none stated; label: 5'-Cy5; single strand
T3 sequence: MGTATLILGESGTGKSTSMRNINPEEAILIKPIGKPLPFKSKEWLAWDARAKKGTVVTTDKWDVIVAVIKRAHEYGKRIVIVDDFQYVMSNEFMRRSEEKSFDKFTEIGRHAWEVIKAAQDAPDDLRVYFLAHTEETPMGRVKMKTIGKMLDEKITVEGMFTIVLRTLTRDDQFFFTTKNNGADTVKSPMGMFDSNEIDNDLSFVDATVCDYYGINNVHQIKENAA

[5] = target: T4, Sak4 (HkaL);SSB HK620 (HkaK) (Enterobacteria phage …, UniProt Q9AZ29;Q9AZ30 1-226;1-195, |); experiment: EMSA; Sak4 titrated on GO47 precoated with 5.1 uM SSB HK620; 1 mM ATP; value is Sak4 concentration; EMSA: 13 mM Tris-HCl pH 7.5, 5 mM MgCl2, 169 mM NaCl, 0.1 mg/mL BSA, 1 mM DTT, +/- 1 mM ATP, 10 nM DNA, 15 min at 30 C; 5% native PAGE in 1X TAE; conditions: protein: recombinant;recombinant; tags: none stated;untagged; copies: 1;4; label: 5'-Cy5; single strand
T4 sequence 1: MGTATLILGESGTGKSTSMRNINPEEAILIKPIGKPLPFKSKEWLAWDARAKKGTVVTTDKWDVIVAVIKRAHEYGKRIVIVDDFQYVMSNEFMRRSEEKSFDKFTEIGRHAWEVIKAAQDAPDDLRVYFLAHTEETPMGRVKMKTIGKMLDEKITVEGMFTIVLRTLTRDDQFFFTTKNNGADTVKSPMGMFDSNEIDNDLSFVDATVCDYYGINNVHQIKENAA
T4 sequence 2: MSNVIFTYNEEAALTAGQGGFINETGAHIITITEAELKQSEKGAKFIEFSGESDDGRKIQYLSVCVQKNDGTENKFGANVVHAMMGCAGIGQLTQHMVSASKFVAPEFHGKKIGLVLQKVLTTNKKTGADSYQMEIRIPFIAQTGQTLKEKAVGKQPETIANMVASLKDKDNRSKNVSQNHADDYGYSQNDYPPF

Sak4 (HkaL) [6] = target: T3, Sak4 (HkaL); experiment: EMSA; 3.7 uM Sak4, 1 mM ATP; EMSA: 13 mM Tris-HCl pH 7.5, 5 mM MgCl2, 169 mM NaCl, 0.1 mg/mL BSA, 1 mM DTT, +/- 1 mM ATP, 10 nM DNA, 15 min at 30 C; 5% native PAGE in 1X TAE; conditions: protein: recombinant; tags: none stated; label: 5'-Cy5 on GO47; blunt

Chain of SSB Ecoli (P0AGE0 2-178): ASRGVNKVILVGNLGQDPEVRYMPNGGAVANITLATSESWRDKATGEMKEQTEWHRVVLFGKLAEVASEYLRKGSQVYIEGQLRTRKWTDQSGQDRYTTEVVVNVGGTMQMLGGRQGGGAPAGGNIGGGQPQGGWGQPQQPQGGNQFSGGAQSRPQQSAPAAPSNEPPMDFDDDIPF

## Nc1ncnc2c1ncn2[C@@H]1O[C@H](COP(=O)(O)OP(=O)(O)OP(=O)(O)O)[C@@H](O)[C@H]1O [ATP]
[1]
  gel shift of Cy5-labelled 81-mer ssDNA and single-strand annealing assay, with o: Sak4 shifted the ssDNA only if ATP was added in the reaction buffer

## Sak4 protein of phage HK620 (natural protein)
[2]
  single-strand annealing of GO47 and GO34 (10 nM each) by 0.5 µM Sak4 with SSB (HK620) at concentrations above 640 nM, 1 mM ATP (spontaneous annealing 11.8%): > 65%

B1: SSB_(HK620), wild-type HkaK protein from phage HK620 (natural protein, UniProt Q9AZ30 1-195, looked up)
chain: MSNVIFTYNEEAALTAGQGGFINETGAHIITITEAELKQSEKGAKFIEFSGESDDGRKIQYLSVCVQKNDGTENKFGANVVHAMMGCAGIGQLTQHMVSASKFVAPEFHGKKIGLVLQKVLTTNKKTGADSYQMEIRIPFIAQTGQTLKEKAVGKQPETIANMVASLKDKDNRSKNVSQNHADDYGYSQNDYPPF
notes: HkaK (first annotated Abc1) of phage HK620, a distant SSB homolog (Pfam DUF669); produced untagged; monomer 21.3 kDa; Untagged; also called Abc1_(HK620); HkaK/Abc1_(HK620); source: E. coli ER2566 with pSMG279, purified (PEI, ammonium sulfate, HiTrap Heparin)
[3]
  stoichiometry N: 4

B2: GO47 (ssDNA)
DNA: ACCTGAATCGCCAGCGGCATCAGCACCTTGTCGCCTTACGTATACTATTTGCCCATGGTGAAAACGGGGGCGAAGAAGTTG
SSB HK620 (HkaK)
  apparent K (half saturation): 226 nM
SSB Ecoli
  apparent K (half saturation): ~40 nM
Sak4 (HkaL) [4]
  apparent K (half saturation): ~1850 nM
[5]
  apparent K (half saturation): < 500 nM

B3: GO47/GO34 duplex (dsDNA)
DNA 1: ACCTGAATCGCCAGCGGCATCAGCACCTTGTCGCCTTACGTATACTATTTGCCCATGGTGAAAACGGGGGCGAAGAAGTTG
DNA 2: CAACTTCTTCGCCCCCGTTTTCACCATGGGCAAATAGTATACGTAAGGCGACAAGGTGCTGATGCCGCTGGCGATTCAGGT
Sak4 (HkaL) [6]
  binding result: no binding

Source: publication PMC5928155, “Sak4 of Phage HK620 Is a RecA Remote Homolog With Single-Strand Annealing Activity Stimulated by Its Cognate SSB Protein” (Frontiers in Microbiology, 2018)
